# From patent publication US20060147995A1 (UNILEVER PATENT HOLDINGS B V, published 2006)
# B1: nR11 (VHH)
# VHH: QVQLQESGGGLVQPGDFVRLSCAASRRASSTYAVGWFRQAPGKEREFVGRIHRGGGSTYYADSVKGRFTISRDNTQNTVYLQMNSLKPEDTAVYYCNVRSYWGQGTQVTVSS
# notes: Llama HC-V tested as soluble HC-V-myc in crude culture supernatant; also called anti-RR6 HC-V fragment nR11; HC-V-myc
# Molecular target: T1, bovine serum albumin (bovine, UniProt P02769 25-607)
# T1 construct: Unconjugated carrier protein used as a control antigen; also called BSA
# T1 sequence (P02769 25-607 limits assumed): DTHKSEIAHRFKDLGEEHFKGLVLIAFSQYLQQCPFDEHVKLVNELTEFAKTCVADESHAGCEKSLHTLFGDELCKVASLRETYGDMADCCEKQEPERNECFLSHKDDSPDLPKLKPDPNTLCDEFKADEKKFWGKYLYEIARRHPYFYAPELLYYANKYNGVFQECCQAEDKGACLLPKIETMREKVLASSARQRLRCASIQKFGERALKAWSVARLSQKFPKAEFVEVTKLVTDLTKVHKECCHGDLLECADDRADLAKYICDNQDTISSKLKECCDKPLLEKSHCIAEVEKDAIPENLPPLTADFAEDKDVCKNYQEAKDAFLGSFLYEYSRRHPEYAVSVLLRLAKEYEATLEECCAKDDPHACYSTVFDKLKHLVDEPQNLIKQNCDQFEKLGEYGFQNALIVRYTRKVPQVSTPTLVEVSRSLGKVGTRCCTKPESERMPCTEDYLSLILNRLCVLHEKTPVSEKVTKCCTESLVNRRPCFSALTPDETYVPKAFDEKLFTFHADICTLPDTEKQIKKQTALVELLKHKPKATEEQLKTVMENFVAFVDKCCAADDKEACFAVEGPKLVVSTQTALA
# Assay: ELISA of soluble HC-V-myc supernatant on immobilised antigens, anti-myc detection
# Procedure: Commercially available strains such as TOPIOF (stratagene) and HB2151 (Pharmacia) may alternatively be used. Two transformants of each clone were pre-grown in 10 ml 2TY/Ampicillin/Glucose. After 3-4 hours of growth at 37° C. (OD₆₀₀=0.5), the cells were pelleted by centrifugation and resuspended in 5 ml 2TY/Ampicillin/IPTG (0.1 mM). After 24 hours of incubation at 25° C. the cultures were centrifuged, and the supernatants were analysed for the production of antigen binding activity in essential the same way as described in Example 3. In this case, however, the presence of specifically bound HC-V fragments was detected by incubation with monoclonal anti-myc antibodies, followed by incubation with poly-clonal rabbit-anti-mouse conjugate with alkaline phosphatase.
# Another three clones (nR3, nR4 and nR8) were specific for RR6-BSA, but the signals observed were very low. […] This was confirmed by analysis of the supernatants on Western blots (FIG. 3B). The remaining 3 clones (nR6, nR9 and nR10) gave significant signals over background on RR6-BSA, BSA and E3G-OVA (FIG. 3A). It would appear that these three ‘sticky’ clones bind to immobilised proteins in general.
binder,measurement,value
B1,binding result,no binding
